{
  "source": "paper PMC4663267",
  "about": "“A Novel C-Terminal Domain of RecJ is Critical for Interaction with HerA in Deinococcus radiodurans”",
  "key": {"DrRecJ": {"target": "T1, DrRecJ (Deinococcus radiodurans, UniProt D0EM60 1-705)", "T1 sequence": "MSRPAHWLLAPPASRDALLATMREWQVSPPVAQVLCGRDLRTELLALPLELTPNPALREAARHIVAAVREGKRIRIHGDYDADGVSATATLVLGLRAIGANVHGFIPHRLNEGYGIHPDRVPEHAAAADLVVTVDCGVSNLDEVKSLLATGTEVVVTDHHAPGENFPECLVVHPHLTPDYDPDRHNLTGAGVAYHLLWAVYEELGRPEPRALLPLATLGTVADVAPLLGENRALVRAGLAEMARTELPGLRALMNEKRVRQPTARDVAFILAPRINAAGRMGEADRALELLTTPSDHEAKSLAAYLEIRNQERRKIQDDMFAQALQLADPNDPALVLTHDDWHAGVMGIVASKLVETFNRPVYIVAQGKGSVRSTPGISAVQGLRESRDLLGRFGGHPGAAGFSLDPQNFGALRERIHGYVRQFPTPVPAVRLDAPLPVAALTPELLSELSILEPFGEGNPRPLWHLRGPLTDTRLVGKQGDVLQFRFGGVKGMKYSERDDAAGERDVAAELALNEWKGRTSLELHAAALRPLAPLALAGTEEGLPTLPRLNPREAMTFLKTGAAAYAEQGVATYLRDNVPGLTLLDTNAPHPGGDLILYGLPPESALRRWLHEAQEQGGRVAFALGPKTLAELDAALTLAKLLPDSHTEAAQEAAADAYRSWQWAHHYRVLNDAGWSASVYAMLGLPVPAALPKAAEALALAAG", "experiment": "EMSA; DNA:RecJ 1:2 to 1:16; no metal added; EMSA: 100 nM DNA, 80 mM NaCl, 20 mM Tris-HCl pH 7.5, 1 mM DTT, 30 C, 10 min, 5% TBE native PAGE", "details": "protein: recombinant; tags: HMT (His6-MBP) tag removed by TEV; label: 5' FAM; single strand"}, "DrHerA": {"target": "T2, DrHerA (Deinococcus radiodurans, UniProt Q9RW32 1-618)", "T2 sequence": "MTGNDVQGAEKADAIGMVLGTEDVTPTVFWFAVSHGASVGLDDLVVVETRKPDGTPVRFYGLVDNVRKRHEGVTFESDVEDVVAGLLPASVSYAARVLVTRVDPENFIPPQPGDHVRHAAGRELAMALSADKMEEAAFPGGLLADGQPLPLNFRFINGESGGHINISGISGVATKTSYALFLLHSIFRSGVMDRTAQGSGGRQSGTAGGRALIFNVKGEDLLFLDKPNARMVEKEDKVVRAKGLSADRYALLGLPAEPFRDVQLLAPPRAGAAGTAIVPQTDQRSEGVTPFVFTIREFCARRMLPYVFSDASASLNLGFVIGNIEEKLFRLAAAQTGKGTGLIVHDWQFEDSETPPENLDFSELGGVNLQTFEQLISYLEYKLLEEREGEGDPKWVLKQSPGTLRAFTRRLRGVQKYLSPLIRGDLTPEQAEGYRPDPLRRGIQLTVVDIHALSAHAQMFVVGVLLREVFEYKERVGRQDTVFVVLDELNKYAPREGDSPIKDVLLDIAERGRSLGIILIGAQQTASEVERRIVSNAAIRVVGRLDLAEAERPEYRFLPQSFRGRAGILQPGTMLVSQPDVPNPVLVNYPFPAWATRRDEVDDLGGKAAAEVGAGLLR", "experiment": "EMSA; HerA alone; EMSA: 100 nM DNA, 80 mM NaCl, 20 mM Tris-HCl pH 7.5, 1 mM DTT, 30 C, 10 min, 5% TBE native PAGE", "details": "protein: recombinant; tags: N-terminal His6; chain copies: 6; label: 5' FAM; single strand"}},
  "data": [
    {"binder": "AAAAAAAAAA (ssDNA)", "note": "[O1 (10 nt ssDNA)]", "values": [
      {"measurement": "binding result", "setting": "DrRecJ", "result": "binds"},
      {"measurement": "binding result", "setting": "DrHerA", "result": "no binding"}
    ]}
  ]
}
